Our source for the transient tether lifetime values is article PMC2148129.

For experiment [1], the target named is peripheral node addressin. The experiment is described as follows: parallel plate laminar flow chamber, duration of transient cell tethers.
Experiment [2] concerns the target peripheral node addressin. The experiment is described as above. This is another data set of the same source.

Read-outs that look alike come from different tables or passages of the source.

B1: L-selectin (receptor)
chain: WTYHYSEKPMNWQRARRFCRDNYTDLVAIQNKAEIEYLEKTLPFSRSYYWIGIRKIGGIWTWVGTNKSLTEEAENWGDGEPNNKKNKEDCVEIYIKRNKDAGKWNDDACHKLKAALCYTASCQPWSCSGHGECVEIINNYTCNCDVGYYGPQCQFVIQCEPLEAPELGTMDCTHPLGNFSFSSQCAFSCSEGTNLTGIEETTCGPFGNWSSPEPTCQVIQCEPLSAPDLGIMNCSHPLASFSFTSACTFICSEGTELIGKKKTICESSGIWSNPSPICQKLDKSFSMIKEGDYNPLFIPVAVMVTAFSGLAFIIWLARRLKKGKKSKRSMNDPY
Turning to B1, the figures for the transient tether lifetime in experiment [1] and in experiment [2] were 0.087 s and 0.057 s, respectively.
